Results as given in patent US20250145711A1 (Janssen / Centocor, published 2025).

B1: PSMB1069 (bispecific antibody, human IgG1, kappa, L234A L235A)
heavy: not shown
light: not shown
chain: QVQLVESGGGEVQPGRSLRLSCAASGFSFSGYGMHWVRQAPGKGLEWVAVMSYDGSNRFYVDSVRGRFSISRDNSKNTLYLQMNSLRPEDTAVYYCARDTVWGSHPDAFDIWGQGTVVTVSSGGSEGKSSGSGSESKSTGGSQSVLTQPPSVSVAPGQTARITCGGNNSGSKSVHWYQQKPGQAPVLVVYDDSDRPSGIPERFSGSNSGNTATLTISRVEAGDEADYYCQVWDSSSDHGVFGGGTKLTVLEPKSSDKTHTCPPCPAPEAAGGPSVFLFPPKPKDTLMISRTPEVTCVVVSVSHEDPEVKFNWYVDGVEVHNAKTKPREEQYNSTYRVVSVLTVLHQDWLNGKEYKCKVSNKALPAPIEKTISKAKGQPREPQVYVLPPSREEMTKNQVSLLCLVKGFYPSDIAVEWESNGQPENNYLTWPPVLDSDGSFFLYSKLTVDKSRWQQGNVFSCSVMHEALHNHYTQKSLSLSPG
notes: HC1/LC1 null arm; HC2 is the anti-PSMA scFv-Fc
B2: 79C3B646 (bispecific antibody, human IgG1, lambda, L234A L235A)
heavy: QVQLQQSGPGLVKPSQTLSLTCAISGDSVSSNSATWNWIRQSPSRGLEWLGRTYYRSKWYNDYTVSVKSRITINPDTSKNQFSLQLNSVTPEDTAVYYCTRVDIAFDYWGQGTLVTVSSASTKGPSVFPLAPSSKSTSGGTAALGCLVKDYFPEPVTVSWNSGALTSGVHTFPAVLQSSGLYSLSSVVTVPSSSLGTQTYICNVNHKPSNTKVDKKVEPKSCDKTHTCPPCPAPEAAGGPSVFLFPPKPKDTLMISRTPEVTCVVVSVSHEDPEVKFNWYVDGVEVHNAKTKPREEQYNSTYRVVSVLTVLHQDWLNGKEYKCKVSNKALPAPIEKTISKAKGQPREPQVYTLPPSREEMTKNQVSLSCAVKGFYPSDIAVEWESNGQPENNYKTTPPVLDSDGSFFLVSKLTVDKSRWQQGNVFSCSVMHEALHNRFTQKSLSLSPGK
light: QTVVTQPPSVSEAPRQRVTISCSGSSSNIGNHGVNWYQQLPGKAPKLLIYNDDLLPSGVSDRFSGSTSGTSGSLAISGLQSEDEADYYCAAWDDSLNGVVFGGGTKLTVLGQPKAAPSVTLFPPSSEELQANKATLVCLISDFYPGAVTVAWKADSSPVKAGVETTTPSKQSNNKYAASSYLSLTPEQWKSHRSYSCQVTHEGSTVEKTVAPTECS
chain: EIVLTQSPATLSASPGERVTLSCSASSSVSYMNWYQQKPGQAPRRWIYDSSKLASGVPARFSGSGSGRDYTLTISSLEPEDFAVYYCQQWSRNPPTFGGGTKVEIKGGSEGKSSGSGSESKSTGGSQVQLVQSGAEVKKPGSSVKVSCKASGYTFTRSTMHWVKQAPGQGLEWIGYINPSSAYTNYNQKFQGRVTLTADKSTSTAYMELSSLRSEDTAVYYCASPQVHYDYAGFPYWGQGTLVTVSSEPKSSDKTHTCPPCPAPEAAGGPSVFLFPPKPKDTLMISRTPEVTCVVVSVSHEDPEVKFNWYVDGVEVHNAKTKPREEQYNSTYRVVSVLTVLHQDWLNGKEYKCKVSNKALPAPIEKTISKAKGQPREPQVYTLPPSREEMTKNQVSLWCLVKGFYPSDIAVEWESNGQPENNYKTTPPVLDSDGSFFLYSKLTVDKSRWQQGNVFSCSVMHEALHNHYTQKSLSLSPGK
notes: IgG1; HC1/LC form the CD79b Fab arm; HC2 is the CD3 scFv-Fc arm; Knobs-in-holes; also called CD79bxCD3 bsAb; CD9B330-N31S x CD3B2030-N106A
B3: 79C3B651 (bispecific antibody, human IgG1, kappa, L234A L235A)
heavy: QVQLQESGPGLVKPSQTLSLTCTVSGVSISNYYWSWIRQPPGKGLEWIGRISPSGRTNYNPSLKSRVTMSLDASKNQFSLKLSSVTAADTAVYYCARGEYSGTYSYSFDIWGQGTMVTVSSASTKGPSVFPLAPSSKSTSGGTAALGCLVKDYFPEPVTVSWNSGALTSGVHTFPAVLQSSGLYSLSSVVTVPSSSLGTQTYICNVNHKPSNTKVDKKVEPKSCDKTHTCPPCPAPEAAGGPSVFLFPPKPKDTLMISRTPEVTCVVVSVSHEDPEVKFNWYVDGVEVHNAKTKPREEQYNSTYRVVSVLTVLHQDWLNGKEYKCKVSNKALPAPIEKTISKAKGQPREPQVYTLPPSREEMTKNQVSLSCAVKGFYPSDIAVEWESNGQPENNYKTTPPVLDSDGSFFLVSKLTVDKSRWQQGNVFSCSVMHEALHNRFTQKSLSLSPGK
light: DIQMTQSPSSLSASVGDRVTITCRSSQSLFDSDDGNTYLDWFQQKPGQSPKLLIQTLSYRASGVPSRFSGSGSGTDFTLTISSLQPEDFATYYCMQRMEFPLTFGGGTKVEIKRTVAAPSVFIFPPSDEQLKSGTASVVCLLNNFYPREAKVQWKVDNALQSGNSQESVTEQDSKDSTYSLSSTLTLSKADYEKHKVYACEVTHQGLSSPVTKSFNRGEC
chain: B2 chain
notes: IgG1; HC1/LC form the CD79b Fab arm; HC2 is the CD3 scFv-Fc arm; Knobs-in-holes; also called CD79bxCD3 bsAb; CD9B643 x CD3B2030-N106A
B4: CD3B1127 (scFv)
scFv: QVQLQQSGAELARPGASVKMSCKASGYTFTRSTMHWVKQRPGQGLEWIGYINPSSAYTNYNQKFKDKATLTADKSSSTAYMQLSSLTSEDSAVYYCASPQVHYDYNGFPYWGQGTLVTVSAGGSEGKSSGSGSESKSTGGSQVVLTQSPAIMSAFPGEKVTMTCSASSSVSYMNWYQQKSGTSPKRWIYDSSKLASGVPARFSGSGSGTSYSLTISSMETEDAATYYCQQWSRNPPTFGGGTKLQIT
notes: also called Murine HL; murine Cris-7 scFv (HL)
B5: CD3B1136 (scFv)
scFv, VL-linker-VH (LH): EIVLTQSPATLSLSPGERATLSCSASSSVSYMNWYQQKPGTSPRRLIYDSSKLASGIPARFSGSGSGRDYTLTISSLEPEDFAVYYCQQWSRNPPTFGGGTKVEIKGGSEGKSSGSGSESKSTGGSEVQLVQSGAEVKKPGESLRISCKASGYTFTRSTMHWVRQMPGKGLEWMGYINPSSAYTNYNPSFQGHVTLSADKSISTAYLQWSSLKASDTAMYYCARPQVHYDYNGFPYWGQGTLVTVSS

Assays:
[1] = molecular target: PSMA on C4-2B human prostate tumor cells (human, UniProt Q04609 1-750); assay: flow cytometry, C4-2B cells
Method: Molecule concentrations ranged from 500-0 nM over 12-points at 3-fold dilution. […] Values reported in the Table 69 were generated by fitting the data to a four-parameter function for ligand binding generating values for y-min, y-max, EC50, and Hill. EC90 were calculated using the equation EC90=[…]\hat{ }(1/Hill)*EC50.

[2] = molecular target: T1, Human CD79b, endogenous on diffuse large B-cell lymphoma cell lines (human, UniProt P40259 29-229); assay: flow cytometry on HBL-1 cells; bispecific control in the trispecific table
T1 construct: On HBL-1, OCI-LY10 and Carnaval cells, which also carry CD20; also called Igβ
T1 sequence: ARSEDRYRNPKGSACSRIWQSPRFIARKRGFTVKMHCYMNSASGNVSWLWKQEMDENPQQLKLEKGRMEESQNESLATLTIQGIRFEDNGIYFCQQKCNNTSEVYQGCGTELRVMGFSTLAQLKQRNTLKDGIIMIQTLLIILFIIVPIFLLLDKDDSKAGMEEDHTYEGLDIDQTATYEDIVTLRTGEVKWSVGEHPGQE
Method: (§1) All cells were washed with BD stain buffer (BD Biosciences; Cat #554657), centrifuged at 1200 RPM for 3 minutes, with supernatant discarded. […] All cells were washed with BD stain buffer (BD Biosciences; Cat #554657), centrifuged at 1200 RPM for 3 mins, with supernatant discarded. Cells were analyzed using Intellicyt (Sartorius) flow cytometer and mean fluorescent intensity (MFI) was generated using Forcyt software (Sartorius). MFI was graphed and EC50 values generated using GraphPad PRISM v.8. Dose response curves were generated by transforming the x axis values using the formula […]. Data was then graphed using non-linear regression curve fit analysis “log(agonist) vs. response-variable slope (four parameter)”.

[3] = molecular target: T1, Human CD79b, endogenous on diffuse …; assay: flow cytometry on Carnaval cells; bispecific control in the trispecific table
Method: as §1

[4] = molecular target: T1, Human CD79b, endogenous on diffuse …; assay: flow cytometry on HBL-1 cells (endogenous CD79b), 1 h 37 C, anti-human IgG AF647
Method: as §1

[5] = molecular target: T1, Human CD79b, endogenous on diffuse …; assay: flow cytometry on Carnaval cells (endogenous CD79b), 1 h 37 C, anti-human IgG AF647
Method: as §1

[6] = molecular target: T2, Human CD79b long isoform, recombinant extracellular domain (CD9W8.001) (human, UniProt P40259 29-159); assay: SPR Biacore 8K, antibody captured by anti-human Fc, CD79b in solution, 25 C, 1:1 Langmuir
T2 construct: extracellular domain; also called hu CD79b long
T2 sequence (looked up): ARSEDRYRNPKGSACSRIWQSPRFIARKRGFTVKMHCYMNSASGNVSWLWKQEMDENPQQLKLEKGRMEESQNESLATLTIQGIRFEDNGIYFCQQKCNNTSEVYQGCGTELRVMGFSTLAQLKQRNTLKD
Method: (§2) General Protocol for SPR Affinity Assessment: Affinity assessment of the bispecific and trispecific constructs against human CD79b were measured using recombinantly expressed extracellular domain of CD79b short and long isoforms (CD9W7.001 and CD9W8.001, respectively) by Surface Plasmon Resonance (SPR) using a Biacore 8 k SPR system (Biacore) at 25° C. in HBSP+ buffer. Cross-reactivity of the same antibody panel was also assessed against cyno and mouse antigens (CD9W1.001 and CD9W105.001, respectively). Briefly, a C1 sensor chip was immobilized with anti-human Fc (target immobilization levels of >400 RU) using vendor recommended amino coupling protocol. The test antibodies were captured through immobilized anti-Fc and was followed by the injection of different CD79b constructs at different concentration series (human CD79b short and long isoforms: 30 nM-0.37 nM at 3-fold dilutions; cyno and mouse CD79b: 3000 nM-37 nM at 3-fold dilutions). The association and dissociation phases were measured for 2 or 3 minutes and 30 minutes, respectively.
(§3) The raw binding sensorgrams were processed using Biacore Insight software (Biacore) by double-referencing and the processed sensorgrams were analyzed for cross-reactivity and fitted to a 1:1 Langmuir model to obtain on-rates, off-rates and affinities.

[7] = molecular target: T3, Human CD79b short isoform, recombinant extracellular domain (CD9W7.001) (human, UniProt P40259 29-159); assay: as above
T3 chain: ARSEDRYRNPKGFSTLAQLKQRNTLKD
Method: as §2, §3

[8] = molecular target: T4, TRCW5 antigen (CD3δε-Fc-Avi) (biotinylated (site not stated)); assay: ELISA after heat
T4 construct: also called recombinant CD3

[9] = molecular target: T4, TRCW5 antigen (CD3δε-Fc-Avi); assay: ELISA, E. coli scFv on biotinylated TRCW5
Method: (§4) Briefly, DNA was transformed into an E. coli expression vector to generate scFv molecules having a C-terminal HA-tag, and cells were plated on 2×YT/Carb/2% Glucose grown overnight at 37 C. Colonies were picked and transferred 50 ul of overnight growth cultures to new plates containing 500 ul of 2×YT/Carb/0.1% Glucose, grown for 6-7 hr, and combined with 50 ul 2×YT medium containing 1×carbenicillin & 12×IPTG. Cultures were incubated with shaking ˜600 RPM 30° C. overnight. Streptavidin coated plates were bound with 50 μL of biotinylated TRCW5 antigen (CD3δε-Fc-Avi, SEQ ID NO: 39) at the concentrations indicated in the ELISA graph for 45 min at room temperature with shaking (FIG. 1, FIG. 3, FIG. 4) followed by washing 3× with 1×TBST. Plates were blocked with 200 ul 3% Milk in 1×TBST for ˜45 mins at room temperature followed by washing 3× with 1×TBST. E. coli cultures were harvested by centrifugation at […] for 10 mins 4° C. and 50 μL of supernatant was transferred into CD3-coated plates followed by incubation at 4 C for 45 min. Plates were washed 3× with 1×TBST. Bound scFv was detected with Chicken Polyclonal Anti-HA-HRP (ab1190) [1:1000] for ˜45 mins RT and luminescence detected with chemi-luminescent substrate.

[10] = molecular target: T4, TRCW5 antigen (CD3δε-Fc-Avi); assay: ELISA: biotinylated TRCW5 on streptavidin plates at the [CD3] of the x axis, E. coli scFv supernatant, anti-HA-HRP, luminescence
Method: as §4

[11] = molecular target: T4, TRCW5 antigen (CD3δε-Fc-Avi); assay: ELISA: biotinylated TRCW5 on streptavidin plates at the antigen concentration of the x axis, E. coli scFv supernatant, anti-HA-HRP, luminescence
Method: as §4

T4 sequence (chain, as listed by the source mutant limits assumed): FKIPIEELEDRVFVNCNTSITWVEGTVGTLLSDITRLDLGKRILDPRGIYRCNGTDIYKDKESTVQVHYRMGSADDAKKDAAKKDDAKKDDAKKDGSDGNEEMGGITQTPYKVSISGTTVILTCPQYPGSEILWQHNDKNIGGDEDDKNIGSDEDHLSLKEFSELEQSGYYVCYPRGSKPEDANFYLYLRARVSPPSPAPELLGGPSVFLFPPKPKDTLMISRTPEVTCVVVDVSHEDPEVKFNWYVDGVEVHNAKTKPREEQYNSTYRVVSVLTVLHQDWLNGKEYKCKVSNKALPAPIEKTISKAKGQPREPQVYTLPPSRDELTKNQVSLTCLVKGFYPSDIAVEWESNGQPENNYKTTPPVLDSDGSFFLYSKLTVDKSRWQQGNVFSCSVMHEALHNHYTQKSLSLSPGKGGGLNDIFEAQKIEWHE
Chain of PSMA on C4-2B human prostate tumor cells (Q04609 whole entry): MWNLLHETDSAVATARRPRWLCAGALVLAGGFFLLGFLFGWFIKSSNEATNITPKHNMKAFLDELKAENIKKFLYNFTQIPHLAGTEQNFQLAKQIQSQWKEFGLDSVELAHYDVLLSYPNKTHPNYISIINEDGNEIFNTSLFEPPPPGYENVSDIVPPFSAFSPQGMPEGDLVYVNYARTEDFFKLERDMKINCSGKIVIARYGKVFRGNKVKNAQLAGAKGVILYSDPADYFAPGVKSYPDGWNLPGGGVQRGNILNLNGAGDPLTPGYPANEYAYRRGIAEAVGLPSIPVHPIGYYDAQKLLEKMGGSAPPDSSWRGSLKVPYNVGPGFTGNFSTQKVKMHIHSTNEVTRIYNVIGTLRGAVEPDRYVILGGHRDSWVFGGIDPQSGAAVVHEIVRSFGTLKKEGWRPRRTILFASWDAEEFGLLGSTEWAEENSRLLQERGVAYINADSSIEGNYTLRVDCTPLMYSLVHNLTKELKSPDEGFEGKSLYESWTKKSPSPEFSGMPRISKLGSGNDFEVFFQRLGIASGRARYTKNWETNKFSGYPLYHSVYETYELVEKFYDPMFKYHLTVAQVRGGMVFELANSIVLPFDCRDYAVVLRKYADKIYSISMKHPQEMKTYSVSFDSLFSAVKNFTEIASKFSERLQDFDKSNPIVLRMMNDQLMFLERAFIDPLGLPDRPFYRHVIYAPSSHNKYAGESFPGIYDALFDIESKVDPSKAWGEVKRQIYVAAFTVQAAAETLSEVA

| Binder | EC50 [2] [nM] | EC50 [3] [nM] | EC50 [4] [nM] | EC50 [5] [nM] | Kd [6] [nM] | Kd [7] [nM] | further results |
| --- | --- | --- | --- | --- | --- | --- | --- |
| B1 | – | – | – | – | – | – | fold binding signal (Y-max) over the average [1]: 2 fold |
| B2 | 97 | 44 | 97 | 44 | 0.022 | 0.58 | – |
| B3 | 15 | 12 | 15 | 12 | 0.052 | 0.35 | – |
| B4 | – | – | – | – | – | – | % Retained 55° C. [8]: 19%; % Retained 60° C. [8]: 0%; % Retained 65° C. [8]: 1%; EC50 [9]: ~0.397 nM; EC50 (read off the curve) [10]: ~0.4 nM |
| B5 | – | – | – | – | – | – | binding result [11]: no binding (tested: 10 ug/ml (antigen)) |
